Experimental data as given in patent US12662524B2.
Positions count from the first letter of the chain named. In names and notes the source's numbering stands. Read-outs that look alike come from different tables or passages of the source.

B1: D2M2-4 (Tetra) (protein)
chain: CEVPTRLNSASLKQPYITQNYFPVGTVVEYECRPGYRRQPSLSPKLTCLQNLKWSTAVEFCKKKSCPNIRDPLNGQAVPANGTYEFGYQMHFICNEGYYLAGEEILYCELKGSVAIWSGKPPICEKVKCTPPPKIKNGKHTFSEVEVFEYLDAVTYSCDPAPGPDPFSLIGESTIYCGDNSVWSRAAPECKVVKCRFPVVENGKQISGFGKKFYYKATVMFECDKGFYLDGSDTIVCDSNSTWDPPVPKCLKVL
B2: D2M2-4 (I134A) (protein)
chain: B1 chain with Q39E, N68Y, K128L
B3: D2M2-4 (E136Q) (D2) (protein)
chain: B1 chain with N68Y, A101I, K128L
B4: D2M2-4 (Y101N) (protein)
chain: B1 chain with Q39E, A101I, K128L
B5: D2M2-4 (L161K) (protein)
chain: B1 chain with Q39E, N68Y, A101I

What was measured:
[1] = molecular target: AP C3-convertase (C3bBb) (Homo sapiens (Human)) (UniProt P01024)
[2] = molecular target: AP C3-convertase (C3bBb) (Homo sapiens (Human)) (UniProt P01024); remark: listed apart in the source
[3] = substrate: CP C3-convertase (C4b2a) (Homo sapiens (Human)) (UniProt P0C0L4)

| Binder | AP-DAA [1] | AP-DAA [2] | CP-DAA [3] |
| --- | --- | --- | --- |
| B1 | 12.5 fold | – | – |
| B2 | – | 6.7 fold | 2 fold |
| B3 | – | 5.6 fold | – |
| B4 | – | 7.2 fold | – |
| B5 | – | 3.4 fold | 2 fold |
